“And” between values parts separate entries of the source, which are not always exact repeats. Identical values can stand only once.
Biological target: Fz-CRD (biotinylated Fz5- and Fz8-CRD)
Experiment: SPR, biotinylated Fz5- and Fz8-CRD on the chip, mini-Xwnt8 flowed over at several concentrations

Kd: 1000 nM and 2000 nM
Substance: mini-XWnt8 (amino acid residues 248-338) (from UniProt P28026) (ligand)
